This passage reports cytotoxicity on target cells (luciferase assay), MACS-sorted TCRαβ negative CD20 TAC-T cells and cytotoxicity on target cells (luciferase assay), MACS-sorted TCRαβ negative CD20 cTCR-T cells results from patent US20220177524A1.

The target in the experiment is CD20 on Raji cells (CD20+) or K562-CD20 cells (UniProt P11836). The experiment is described as follows: cell-based or functional assay.

On to “anti-CD20 TAC (anti-CD20 scFv (Leu-16)-(GGGGS)3-huUCHT1.Y177T-GGGGS-CD4)”, for which the cytotoxicity on target cells (luciferase assay), MACS-sorted TCRαβ negative CD20 TAC-T cells is 54.6%.
For “anti-CD20 chimeric TCR (anti-CD20 scFv (Leu-16)-(GGGGS)3-CD3epsilon)”, the cytotoxicity on target cells (luciferase assay), MACS-sorted TCRαβ negative CD20 cTCR-T cells amounted to 49.2%.
